Measurements from PMC9348789 (2022).

Key:
[1] = biological target: T1, SARS-CoV-2 nucleocapsid protein (N) (SARS-CoV-2, UniProt P0DTC9 1-419); assay: BLI
[2] = biological target: T1, SARS-CoV-2 nucleocapsid protein (N); assay: BLI; remark: listed apart in the source

B1: CXCL14 (ligand)
chain: SKCKCSRKGPKIRYSDVKKLEMKPKYPHCEEKMVIITTKSVSRYRGQEHCLHPKLQSTKRFIKWYNAWNEKRRVYEE
koff [1]: 0.0019 s⁻¹
Kd [2]: 45 nM

B2: CCL11 (ligand)
chain: not shown
koff [1]: 0.0045 s⁻¹
Kd [2]: 72 nM

B3: CCL21 (ligand)
chain: SDGGAQDCCLKYSQRKIPAKVVRSYRKQEPSLGCSIPAILFLPRKRSQAELCADPKELWVQQLMQHLDKTPSPQKPAQGCRKDRGASKTGKKGKGSKGCKRTERSQTPKGP
koff [1]: 0.0014 s⁻¹
Kd [2]: 14 nM

B4: CCL5 (ligand)
chain: SPYSSDTTPCCFAYIARPLPRAHIKEYFYTSGKCSNPAVVFVTRKNRQVCANPEKKWVREYINSLEMS
koff [1]: 0.00019 s⁻¹
Kd [2]: 10 nM

B5: CCL26 (ligand)
chain: TRGSDISKTCCFQYSHKPLPWTWVRSYEFTSNSCSQRAVIFTTKRGKKVCTHPRKKWVQKYISLLKTPKQL
koff [1]: 0.00093 s⁻¹
Kd [2]: 26 nM

B6: CXCL4 (ligand)
chain: EAEEDGDLQCLCVKTTSQVRPRHITSLEVIKAGPHCPTAQLIATLKNGRKICLDLQAPLYKKIIKKLLES
koff [1]: 0.00053 s⁻¹
Kd [2]: 170 nM

B7: CCL28 (ligand)
chain: SEAILPIASSCCTEVSHHISRRLLERVNMCRIQRADGDCDLAAVILHVKRRRICVSPHNHTVKQWMKVQAAKKNGKGNVCHRKKHHGKRNSNRAHQGKHETYGHKTPY
koff [1]: 0.00087 s⁻¹
Kd [2]: 22 nM

B8: CXCL9 (ligand)
chain: TPVVRKGRCSCISTNQGTIHLQSLKDLKQFAPSPSCEKIEIIATLKNGVQTCLNPDSADVKELIKKWEKQVSQKKKQKNGKKHQKKKVLKVRKSQRSRQKKTT
koff [1]: 0.00085 s⁻¹
Kd [2]: 12 nM

B9: CXCL11 (ligand)
chain: FPMFKRGRCLCIGPGVKAVKVADIEKASIMYPSNNCDKIEVIITLKENKGQRCLNPKSKQARLIIKKVERKNF
koff [1]: 0.0033 s⁻¹
Kd [2]: 130 nM
